These results are taken from patent US20230400461A1 (TEKNOLOGIAN TUTKIMUSKESKUS VTT, published 2023).

Experiment [1] deals with T1, Staphylococcus aureus Enterotoxin A (Staphylococcus aureus, UniProt P0A0L2 25-257).
T1 sequence: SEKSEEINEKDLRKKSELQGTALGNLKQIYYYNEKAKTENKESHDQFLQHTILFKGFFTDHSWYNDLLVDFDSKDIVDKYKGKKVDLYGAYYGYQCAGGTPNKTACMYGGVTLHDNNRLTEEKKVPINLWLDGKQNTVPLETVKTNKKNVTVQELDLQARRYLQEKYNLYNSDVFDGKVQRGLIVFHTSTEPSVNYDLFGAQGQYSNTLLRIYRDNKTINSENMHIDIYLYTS

The target of experiment [2] is T2, Staphylococcus aureus Enterotoxin B (Staphylococcus aureus, UniProt P01552 28-266).
T2 sequence: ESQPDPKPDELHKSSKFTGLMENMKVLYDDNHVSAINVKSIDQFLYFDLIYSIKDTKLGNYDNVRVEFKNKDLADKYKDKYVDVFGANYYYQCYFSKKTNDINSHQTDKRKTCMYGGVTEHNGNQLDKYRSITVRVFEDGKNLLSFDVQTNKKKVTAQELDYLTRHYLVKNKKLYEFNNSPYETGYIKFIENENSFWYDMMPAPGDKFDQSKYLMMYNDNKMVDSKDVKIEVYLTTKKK
Put plainly: ELISA (screening; results not shown).

B1: anti-SEA (55) Fab (Fab, V domains shown)
VH: QVQLQQSGAELMKPGASVKISCKATGYTISSHWIEWVKQRPGHGLEWIGETLPGSGSTKYNEKFKGKATITADTSSNTAYMQLSSLTSEDSAVYYCARGDGNYGWFAYWGQGTLVTVSA
VL: DIVLTQSPALMAASPGEKVTITCSVSSSISSSNLHWYQQKSETSPKPWIYGTSNLASGVPVRFSGSGSGTSYSLTISSMEAEDAATYYCQQWSSYPLTFGAGTKLELK
For the molecule B1, in experiment [1], the dissociation constant Kd (as a rule, the equilibrium constant for the complex coming apart) stood at 3.6 nM; the koff (usually the rate constant with which the complex falls apart) was found to be 0.00035 s⁻¹; the kon (usually a measure of how fast the partners come together) was 97000 M⁻¹ s⁻¹. For the same molecule, in experiment [2], the binding result was “no binding”.

B2: anti-SEA (90) Fab (Fab, V domains shown)
VH: EVQLQQSGPELVKPGASVKMSCKASGYTFTSYVMQWVKQKPGQGLEWIGYINPYNDGTKYNEKFKGKATLTSDKSSSTAYMELSSLTSEDSAVYYCARGDGVGGMDYWGQGTSVTVSS
VL: DIVMTQSPATLSVTPGDRVSLSCRASQSISDYLHWYQQKSHESPRLLIKYASQSISGIPSRFSGSGSGSDFTLSINSVEPEDVGVYYCQNGHSFPPTFGGGTKLEIK
In experiment [1], B2 came in with a Kd of 3 nM, a koff of 0.0013 s⁻¹ and an on-rate (kon) of 420000 M⁻¹ s⁻¹. In experiment [2], the binding result is “no binding”.
